# Results as given in the DeepSol protein solubility set.
# Experiment: soluble on expression in E. coli; label from the status in PepcDB or PDB records
row,Sequence,soluble on expression in E. coli
1,MKALSKLKAEEGIWMTDVPVPELGHNDLLIKIRKTAICGTDVHIYNWDEWSQKTIPVPMVVGHEYVGEVVGIGQEVKGFKIGDRVSGEGHITCGHCRNCRGGRTHLCRNTIGVGVNRPGCFAEYLVIPAFNAFKIPDNISDDLAAIFDPFGNAVHTALSFDLVGEDVLVSGAGPIGIMAAAVAKHVGARNVVITDVNEYRLELARKMGITRAVNVAKENLNDVMAELGMTEGFDVGLEMSGAPPAFRTMLDTMNHGGRIAMLGIPPSDMSIDWTKVIFKGLFIKGIYGREMFETWYKMAALIQSGLDLSPIITHRFSIDDFQKGFDAMRSGQSGKVILSWD,soluble
2,MDNNVEDKKEAMLKRLANRHEKRLLDQVKSNTKKIDLRATERAFLESSPTSMNMRTPLNPSISSSVSDSPILSYDEKANKQIIALATWCNTMMELDVSEEMDLGESKAEACRNIQKMLKKRSDTSEVENTQENARRRYQRIFEKNDPEVVKKKCKQLLDDSGMDASIKDLLSKNNVAIRKEHAVYNDIGLQTTLLHTFLSFHPAWLKTALEAIFNTRIDAQPKHLMKKLSQFFLDLVFSNPTMLKNKKFAQGSGKPIITEAGKEALHKHFLSVSMKLMFLIETAHTHRVIPNLTRIFTKSSHFNCLDDVFSELTKELLTGSSATFKKAFAKVGFIPTYRQSFIENYDYQAKGFSDFSDGLILAKLLETVGEMPHGQILLKLRDPAGDRIRKIGNVKIVLQEMSSLGVPTDNVNAESIVGGKKDEILSILWAIIGVRVAKEQRIKVTRVSEERTPKKRRSAVHDDMSSEVLKMCKIYGRQMEIEVMDLDSLSDGCLLAKLWTTFGTNSTPIQDYDGLSLWEKVVSVAELELCIQRGLDQNMALFVKMFLERLGMIQDLNEKATKIQRMWKAYVQRKNTPKLYFIVQQLLADSSIPRNRSVSPFSNNVTFTVPRTPRNNILTERPSLSQIPSSRQSMDSTFNDATFTVSRDSIESMNKMQKTPLRGTFTRKTIAMVIEEEDDSENNETVVPSTLKKRTVVRMEHNAEVFREQDEDDENQDKDTVAPSAENLDSPPSDIPLETLSSIPSASQSAIFLQDSETGKEMHVPKAEDVGVVVLEASDSPVALEGNNEASYDGQKIENLETFEIKEGKTQEDLPSKSPMDPTQTSGSPLVEFRMTEEQERLEMLFQSLSEDQKNFVKTNNLSVSIEDDANTPELRRILRQTRELKRKQQEIARKLGNIERNALAVRDGGEDSSDSRSDAGHDVAILHGDDSQLFENSMQLDQKSQLQNDETQILENKKKAAVVIQKMIRGFIARRKFQMEISNIRNRMIQYNHILAQEDEQIGIEEMEDKSVEAKLKKCALHGLTNDNLHVVHVAATVIDRVTDLVPSLLEKLVVELNGIKSITDVLIVADRGFSYTSILHPLLNVLEKLFTKIPEEVTNSHILPHLKILSPRLMLLMLKHSEVKELFIPIINTLTSIARRFPDKKQSSFSSSSYSIKQSLKKVKDQECRNKLVRLESICEDML,not soluble
3,MPRLYLGKIPYNARERDVERFLKGYGKINNISMKYGFAFVDFEDSRDAEDACHDLDGKTMEGSSMRLVVEMARGKPRGNDRHGSRSPRRRSRSPRRRSRTPPRRRSRSRDRKRSRRSRSRSSSRSRSPVRESRRRSESRSPSPKRDLKREASRSRSPLPAKDRSRTRSGSPPKNGGDRKRSVSRGRSHSRDGSNRSVSRSPSPGSPKD,not soluble
4,MSLKVKRPFDAYLDEMNKITILLPHAYGTSRTFRLQEGSNVKDLPIAHTIALPDATKYECFIEEPLDVGKYYTVRDERNEETDLQIGAVIRTAIFDEKYYYEGTDLGAVHQKEATTFKVWAPTARLAKVRIYKSDKEYTDYEMYREENGVWAHTLHGDLAGEKYTFLVCINLIWNEAVDPYAKSVTVNGKYGVVIDLEKTNVTKRGQLPPLQAMTDAILYELHIRDATIHPGSGVSKKGTYKGLMEEGTTGRNGTLTGLSHIKDLGVTHVELLPLYCFGGVDEANPSSAYNWGYNPLYYNAPTGYYATNPSDPYNRIVECKQLIETFHEHGIRVIIDVVYNHVYERELSSFEKLVPGYYFRHGENGMPSNGTGVGNDIASERKMMRKFIVESILYWLTEYNVDGFRFDLMGILDVDTINIIEKEVRNIKRDALLLGEGWDLQTPLPLEEKATLNNAKKMPHIAQFNDQFRDGIKGSTFHINKRGFAFGGYVDCNHLQYIASGSLLSMKETGLFLEPVQSINYVECHDNMTMWDKLMRSNEESEEILKKRHLLATAMVILSQGIPFLHAGQEFYRTKQGNENSYNANDEINQLDWDRKEKEIETVNYIKGLIAIRKEHGAFRLQNADLIKKHMTFLQTSPEVLAYHLEHVESFGPWKEIVVLFNSSLEAKTVQLPKEETWHVLVNEKQAKIEPISSFRGKELRLAPISTYILTIMEGHHHHHH,soluble
5,MTLLNLMIMQDYGISVCLTLTPYLQHELFSAMKSYFSKYILPVSLFTLPLSLSPSVSAFTLPEAWRAAQQHSADFQASHYQRDAVRARQQQAKAAFLPHVSANASYQRQPPSISSTRETQGWSVQVGQTLFDAAKFAQYRQSRFDTQAAEQRFDAAREELLLKVAESYFNVLLSRDTVAAHAAEKEAYAQQVRQAQALFNKGAATALDIHEAKAGYDNALAQEIAVLAEKQTYENQLNDYTDLDSKQIEAIDTANLLARYLPKLERYSLDEWQRIALSNNHEYRMQQLALQSSGQALRAAQNSRYPTVSAHVGYQNNLYTSSAQNNDYHYRGKGMSVGVQLNLPLYTGGELSGKIHEAEAQYGAAEAQLTATERHIKLAVRQAYTESGAARYQIMAQERVLESSRLKLKSTETGQQYGIRNRLEVIRARQEVAQAEQKLAQARYKFMLAYLRLVKESGLGLETVFAE,not soluble
6,MTLKELYAETRSHMQKSLEVLEHNLAGLRTGRANPALLLHLKVEYYGAHVPLNQIATVTAPDPRTLVVQSWDQNALKAIEKAIRDSDLGLNPSNKGDALYINIPPLTEERRKDLVRAVRQYAEEGRVAIRNIRREALDKLKKLAKELHLSEDETKRAEAEIQKITDEFIAKADQLAEKKEQEILG,soluble
7,MAHHHHHHMAFTGPNPSIWVGGLDPDLQEQKLYDYFVRIGPVTSVRVCVDSATQKSLGYGYVNFQDPADAEKALDQAGSKLGSRYLRIAKIQRDPSKRRSGVNNILVKKLPKSVDTYALKEMFSKFGRLTAIGLACDEKGESRGYARISFEREESAVDAVREMDGMEMDGQAIVVERYQAQHRDELLKQFTNLYVKNLDPAVTDEKLRAFFAKYGEVSSAKVRDLGAAQSEAGLGYVAFQKHENAARAVEELNGKECEIAKAGSPLDVSRFRSREERQRDRERQRRERAQQHSKYPNLYVKGFDDTVTSERLEELFQRYGETVSVTVMMDKETGVSRCFGFVSMKDQNAASQAIQELNGSTFLSPRPLFVTYALRKDARRQNLEERSKQFRVRQNPMGGPGMGAMPPIGFMGPQMFNNVNMPFMNPRVPIMPMNGMNGIGGMNGMGGMNGVGGVGGMGGMGGMGGMGGMGGMGGMGGMGSMGGMGGMARPMAPNAMSQMRSRPMPQKPPMQSLMPQQHQQAPPQGQNLAAVLANLNPEQQKNVLGERLYSYIVRSHPSVAAKITGMLLEMDNAEILNMLDSPTMLDSKIAEAQDVLNRHMSV,soluble
8,MGSDKIHHHHHHMQRVRQICVVGGSGFVGSALVHRLSTAGYDVKVLTRRRESSKHLILLPNVQVTECDVFNEASLSGQLHGQDAVINLAGILHESGNATFESIHVDLATRIADICCKQGVPRLLHMSALKASADAKSAYLRSKAAGEQAVLRRADELQVTVFRPSVIFGRGDHFLSMLANVVNMMPVVAVAKPNAKFQPIWVEDVAYVFLTALENVSTYGRSIDLGGPQVYTLKQLIELTALLLGKKRRIVSLNDKLSYYQAYALELMPFKLMTRDNLLSMEVDSVCDGPISEFFGHSLASLEAIAPEYIAGETPRSAYERFRSLAGRTFSRR,not soluble
9,MTIFEKNVIEFVTVAAEFCAFLERAEHMKRKAFVDTSLKILPLLYLKASLLPKCETIGDEAPETYVTEEIYEILRINLAGLMGEKDDYLDVFVQDMVYSDQPIKKSVSEDLADIYQDIKDFIFVFQLGLNETMNDSLAICQENFGLLWGQKLVNTLRALHDVKYLEHHHHHH,soluble
10,DYESPIVNVVEACAPAVVKIDVVKTVKTSFFDPYFEQFFKKWFGELPPGFERQVASLGSGFIFDPEGYILTNYHVVGGADNITVTMLDGSKYDAEYIGGDEELDIAVIKIKASDKKFPYLEFGDSDKVKIGEWAIAIGNPLGFQHTVTVGVVSATNRRIPKPDGSGYYVGLIQTDAAINPGNSGGPLLNIHGEVIGINTAIVNPQEAVNLGFAIPINTVKKFLDTILTQKKVEKAYLGV,soluble
